# According to patent US20210102950A1 (YALE UNIVERSITY, published 2021):
# B1: OtUBD (ubiquitin binding domain of an effector protein of Orientia tsutsugamushi), native unmodified domain (other)
# chain: VNFLSENRMITSAAAALADTLLKNNNRITEGVLVDRIFDNKILSVQEKQQLLNNLLDNHIKENKSLTKESLTRMLASTHFVQQQANVLLNEKFNK
# notes: also called OtUDB
# Target: T1, ubiquitin (single molecule, mono-ubiquitin) (Homo sapiens (Human), UniProt P0CG47 1-76)
# T1 construct: also called one ubiquitin
# Assay: isothermal titration calorimetry, one OtUBD to one ubiquitin
binder,measurement,value
B1,Kd,5.3 nM
